From patent publication CN117736314A

Assays:
[1] = target: SARS-CoV-2 Omicron BA.5 S蛋白 (病毒颗粒上) (SARS-CoV-2); test: cell-based or functional assay
[2] = target: SARS-CoV-2 Omicron(BA.2) S蛋白 (病毒颗粒上) (SARS-CoV-2); test: cell-based or functional assay

## LY-CoV1404(bebtelovimab) (antibody)
[1]
  IC 50 (ng/mL), live virus neutralisation, FFA on Vero cells: 7.99 ng/mL
[2]
  IC 50 (ng/mL), live virus neutralisation, FFA on Vero cells: 11.2 ng/mL
